In patent US20190127473A1 (Dana-Farber, published 2019) one finds binding result and Kd data, which are given here for 1 molecule.

Assay [1] has as its target T1, recombinant human galectin-7 (human, UniProt P47929 2-136, limits assumed).
T1 construct: Bought; also called Gal7; Ga17 (so in the source)
Nature of the assay: SPR (BIAcore 3000), 8F4 captured by anti-mouse antibody on CM-5 chip, galectin as analyte. The method, then: (§1) Surface Plasmon Resonance (SPR) analyses (also called Biomolecular Interaction Analysis, BlAcore) were also conducted in order to further define the biophysical properties (e.g., kₒₙ, koff, koffkₒₙ (KD) of Gal1's interaction with the 8F4 mAb. SPR experiments were performed at 25° C. in the standard BlAcore running buffer HBS-EP on a BlAcore 3000 Instrument (BlAcore). In brief, anti-mouse antibody was first captured on the CM-5 sensor chip (GE HealthCare). Afterwards, approximately 250 response units (RU) of the 8F4 anti-Gal1 mAb were immobilized (with exception of ˜350 RU for rmGal1 assay) and followed by various dilutions of recombinant galectin (human galetin-1, 2, 3, 4, 7, 8, 9 or murine galectin-1 (mGal1), from R&D Systems) to assess the binding of galectin to 8F4. All data are shown after subtraction from a channel loaded with buffer alone. Data analysis to obtain the binding curves shown and equilibrium dissociation constant (KD) was performed using BlAevaluation 3.1 (BlAcore) by globally fitting the data to a simple 1:1 (Langmuir) binding model.
(Surface plasmon resonance follows binding to a sensor surface in real time, without labels.)

Assay [2] has as its target T2, recombinant human galectin-9 (human, UniProt O00182-2 2-323, limits assumed).
T2 construct: Bought; also called Gal9; Ga19 (so in the source)
Described as above. The method, then: as §1

For assay [3], the target named is T3, recombinant human galectin-2 (human, UniProt P05162 2-132, limits assumed).
T3 construct: Bought; also called Gal2; Ga12 (so in the source)
T3 sequence (looked up): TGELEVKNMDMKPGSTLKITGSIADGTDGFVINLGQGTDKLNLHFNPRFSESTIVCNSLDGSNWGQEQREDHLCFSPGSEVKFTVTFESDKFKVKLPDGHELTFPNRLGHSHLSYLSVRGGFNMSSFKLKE
The description is as above. The procedure:
as §1

In assay [4] the target is T4, recombinant human galectin-4 (human, UniProt P56470 2-323, limits assumed).
T4 construct: Bought; also called Gal4; Ga14 (so in the source)
T4 sequence (looked up): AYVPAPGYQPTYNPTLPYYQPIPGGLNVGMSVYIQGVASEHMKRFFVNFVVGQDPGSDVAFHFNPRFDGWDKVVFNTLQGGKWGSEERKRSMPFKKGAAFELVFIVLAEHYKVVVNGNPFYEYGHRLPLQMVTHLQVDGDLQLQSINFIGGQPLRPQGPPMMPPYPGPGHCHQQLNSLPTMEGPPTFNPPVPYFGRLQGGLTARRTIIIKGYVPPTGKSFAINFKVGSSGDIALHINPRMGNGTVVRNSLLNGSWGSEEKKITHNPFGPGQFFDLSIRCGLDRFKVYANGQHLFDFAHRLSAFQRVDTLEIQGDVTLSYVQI
Described as above. The procedure:
as §1

The target in assay [5] is T5, recombinant human galectin-3 (human, UniProt P17931 2-250).
T5 construct: Bought; also called Gal3; Ga13 (so in the source)
The assay is described as above. The procedure:
as §1

Assay [6] concerns the target T6, recombinant human galectin-8 (human, UniProt O00214 1-317, limits assumed).
T6 construct: Bought; also called Gal8; Ga18 (so in the source)
T6 sequence (looked up): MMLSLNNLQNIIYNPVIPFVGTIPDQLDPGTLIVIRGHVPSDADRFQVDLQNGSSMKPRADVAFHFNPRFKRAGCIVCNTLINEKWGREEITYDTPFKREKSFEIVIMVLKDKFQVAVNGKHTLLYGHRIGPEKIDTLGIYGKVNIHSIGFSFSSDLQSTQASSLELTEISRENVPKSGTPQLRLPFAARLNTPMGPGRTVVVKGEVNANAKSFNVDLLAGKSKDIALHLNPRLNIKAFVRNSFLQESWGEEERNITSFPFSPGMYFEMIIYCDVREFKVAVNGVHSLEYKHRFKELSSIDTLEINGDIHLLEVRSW
The assay is described as above. The procedure:
as §1

In the next assay the target is T7, human galectin-1 (Gal1) (human, UniProt P09382 2-135).
T7 construct: Used as recombinant protein bought from R&D Systems (SPR) and as endogenous protein in L428 cell lysate (Western blot); also called hGal1; rhGal1
Nature of the assay: SPR (BIAcore 3000, 25 C, HBS-EP), 8F4 captured by anti-mouse antibody on CM-5 chip, galectin as analyte, 1:1 Langmuir fit; rhGal1 as analyte; ~250 RU of 8F4 captured. The method, then: as §1

Another assay deals with T8, mouse galectin-1 (Gal1) (mouse, UniProt P16045 2-135).
T8 construct: Used as recombinant protein bought from R&D Systems (SPR) and as endogenous protein in B16-F10 cell lysate (Western blot); also called mGal1; rmGal1
Nature of the assay: SPR (BIAcore 3000, 25 C, HBS-EP), 8F4 captured by anti-mouse antibody on CM-5 chip, galectin as analyte, 1:1 Langmuir fit; rmGal1 as analyte; ~350 RU of 8F4 captured. The method, then:
as §1

T7 sequence (P09382 2-135 limits assumed): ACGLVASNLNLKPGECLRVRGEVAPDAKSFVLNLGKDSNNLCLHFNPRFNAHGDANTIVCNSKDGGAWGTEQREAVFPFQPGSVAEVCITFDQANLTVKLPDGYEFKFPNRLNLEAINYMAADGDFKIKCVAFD
T1 sequence (P47929 2-136 limits assumed): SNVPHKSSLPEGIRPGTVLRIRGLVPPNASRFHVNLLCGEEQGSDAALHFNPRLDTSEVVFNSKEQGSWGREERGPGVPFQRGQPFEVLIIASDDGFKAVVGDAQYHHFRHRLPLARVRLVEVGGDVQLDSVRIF
T8 sequence (P16045 2-135 limits assumed): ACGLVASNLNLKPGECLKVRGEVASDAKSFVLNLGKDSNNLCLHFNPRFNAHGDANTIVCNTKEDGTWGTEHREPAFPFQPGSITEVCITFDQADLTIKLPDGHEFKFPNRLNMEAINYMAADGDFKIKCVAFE
T5 sequence (P17931 2-250 limits assumed): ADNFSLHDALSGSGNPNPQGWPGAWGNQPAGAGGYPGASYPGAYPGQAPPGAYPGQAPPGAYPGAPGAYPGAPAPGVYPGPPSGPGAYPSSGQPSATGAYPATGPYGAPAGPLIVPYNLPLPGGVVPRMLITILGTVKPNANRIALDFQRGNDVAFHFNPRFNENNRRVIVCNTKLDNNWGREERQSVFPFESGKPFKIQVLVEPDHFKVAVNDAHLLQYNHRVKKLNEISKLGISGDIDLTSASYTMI
T2 sequence (O00182 other isoform, or with tags, fused parts or gaps limits assumed): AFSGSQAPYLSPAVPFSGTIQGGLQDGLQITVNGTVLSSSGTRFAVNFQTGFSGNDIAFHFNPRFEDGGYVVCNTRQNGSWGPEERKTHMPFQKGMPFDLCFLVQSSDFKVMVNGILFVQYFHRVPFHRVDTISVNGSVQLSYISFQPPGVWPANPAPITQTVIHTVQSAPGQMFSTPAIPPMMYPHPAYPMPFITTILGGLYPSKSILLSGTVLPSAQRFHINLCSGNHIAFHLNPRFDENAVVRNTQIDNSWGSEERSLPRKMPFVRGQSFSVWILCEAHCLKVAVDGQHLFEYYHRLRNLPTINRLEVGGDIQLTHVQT

B1: 8F4 anti-Gal1 monoclonal antibody (antibody, V domains shown)
VH: EVQLQQSVAEFVRPGASVRLSCTASGFNIKNTYIHWVRQRPEQGLEWIGKIDPANGNTKYVPEFQGKATMTADTSSNTVYLHLSSLTSEDTAIYYCVDGYYGWYFAVWGTGTTVTVSS
VL: QAVVTQESALTTSPGETVTLTCRSSTGAVTTSNYANWVQEKPDHLFTGLIGATNNRAPGVPARFSGSLIGDKAVLTITGAQTEDEAIYFCALWYRNHFIFGSGTKVTVL
notes: Hybridoma monoclonal antibody; The light chain is lambda; Hybridoma 8F4.F8.G7 is deposited as ATCC PTA-10535; also called 8F4 mAb; 8F4.F8.G7
As to B1, the binding result in assay [1], in assay [2], in assay [3], in assay [4], in assay [5] and in assay [6] was “no binding” throughout. In addition, the figures for the Kd in the assay with human galectin-1 (Gal1) and with mouse galectin-1 (Gal1) were 13 nM and 38.5 nM, respectively.
